Laboratory results taken from publication PMC10932818 (Cancer immunology research, 2024).

Biological target: recombinant Fc-tagged extracellular domain of LILRB3 (LILRB3-ECD) (human, UniProt O75022 24-443, glycosylated (production from mammalian NS0 cells))
Assay: BLI

Chain of recombinant Fc-tagged extracellular domain of LILRB3 (LILRB3-ECD) (O75022 24-443): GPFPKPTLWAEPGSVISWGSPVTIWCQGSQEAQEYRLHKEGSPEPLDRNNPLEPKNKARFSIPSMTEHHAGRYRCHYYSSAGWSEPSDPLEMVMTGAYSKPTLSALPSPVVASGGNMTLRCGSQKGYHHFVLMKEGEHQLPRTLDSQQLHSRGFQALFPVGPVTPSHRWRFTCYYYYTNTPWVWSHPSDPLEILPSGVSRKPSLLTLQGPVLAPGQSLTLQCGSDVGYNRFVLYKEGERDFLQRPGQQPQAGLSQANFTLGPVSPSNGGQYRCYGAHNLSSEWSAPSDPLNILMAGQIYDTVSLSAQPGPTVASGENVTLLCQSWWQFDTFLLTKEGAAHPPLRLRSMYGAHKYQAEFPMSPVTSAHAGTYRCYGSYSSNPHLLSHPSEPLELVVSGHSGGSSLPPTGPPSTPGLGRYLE

Kd: 44 nM
B1: recombinant human galectin-4 (Galectin-4-His) (natural protein, UniProt P56470 1-323, looked up)
chain: MAYVPAPGYQPTYNPTLPYYQPIPGGLNVGMSVYIQGVASEHMKRFFVNFVVGQDPGSDVAFHFNPRFDGWDKVVFNTLQGGKWGSEERKRSMPFKKGAAFELVFIVLAEHYKVVVNGNPFYEYGHRLPLQMVTHLQVDGDLQLQSINFIGGQPLRPQGPPMMPPYPGPGHCHQQLNSLPTMEGPPTFNPPVPYFGRLQGGLTARRTIIIKGYVPPTGKSFAINFKVGSSGDIALHINPRMGNGTVVRNSLLNGSWGSEEKKITHNPFGPGQFFDLSIRCGLDRFKVYANGQHLFDFAHRLSAFQRVDTLEIQGDVTLSYVQI
